In paper PMC7858582:

B1: recombinant BAFF-R (receptor)
chain: MGARRLRVRSQRSRDSSVPTQCNQTECFDPLVRNCVSCELFHTPDTGHTSSLEPGTALQPQEGSALRPDVALLVGAPALLGLILALTLVGLVSLVSWRWRQQLRTASPDTSEGVQQESLENVFVPSSETPHASAPTWPPLKEDADSALPRHSVPVPATELGSTELVTTKTAGPEQ
B2: NgR1-Fc (Fc fusion)
chain: CPGACVCYNEPKVTTSCPQQGLQAVPTGIPASSQRIFLHGNRISHVPAASFQSCRNLTILWLHSNALARIDAAAFTGLTLLEQLDLSDNAQLHVVDPTTFHGLGHLHTLHLDRCGLRELGPGLFRGLAALQYLYLQDNNLQALPDNTFRDLGNLTHLFLHGNRIPSVPEHAFRGLHSLDRLLLHQNHVARVHPHAFRDLGRLMTLYLFANNLSMLPAEVLMPLRSLQYLRLNDNPWVCDCRARPLWAWLQKFRGSSSEVPCNLPQRLADRDLKRLAASDLEGCAVASGPFRPIQTSQLTDEELLSLPKCCQPDAADKASVLEPGRPASAGNALKGRVPPGDTPPGNGSGPRHINDSPFGTLPSSAEPPLTALRPGGSEPPGLPTTGPRRRPGCSRKNRTRSHCRLGQAGSGASGTGDAEGS

Key:
[1] = target: soluble recombinant mouse BAFF (mouse) (UniProt Q9WU72)
Chain of UniProt Q9WU72 (Q9WU72 127-309): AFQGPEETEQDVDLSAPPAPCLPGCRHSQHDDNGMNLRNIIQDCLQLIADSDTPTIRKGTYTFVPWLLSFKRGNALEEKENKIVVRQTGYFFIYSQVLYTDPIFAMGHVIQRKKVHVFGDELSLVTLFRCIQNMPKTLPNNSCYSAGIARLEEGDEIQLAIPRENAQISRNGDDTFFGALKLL

[2] = target: soluble recombinant mouse BAFF (mouse) (UniProt Q9WU72); remark: listed apart in the source

Binder	percent of NgR1+ or NgR3+ B-cells isolated from spinal cord of EAE ngr1+/+ mice in S phase (BrdU/7AAD flow cytometry) after 50 ng/mL rBAFF pre-incubated with excess rBAFF-R [1] [%]	percent of NgR1+ or NgR3+ B-cells isolated from spinal cord of EAE ngr1+/+ mice in S phase (BrdU/7AAD flow cytometry) after 50 ng/mL rBAFF pre-incubated with excess NgR-Fc [1] [%]	percent of isolated spinal cord B-cells staying in the G0/G1 phase after rBAFF pre-incubated with excess NgR-Fc [1] [%]	percent of B-cells isolated from spleen entering the S phase after rBAFF pre-incubated with excess NgR-Fc [2] [%]	percent of B-cells isolated from spleen halted in the G0/G1 phase after rBAFF pre-incubated with excess NgR-Fc [2] [%]
B1	27.7				
B2		20.6	55.8	8	85.5
